Measurements published in PMC8405949 (2021).

Tests used:
Assay in all cases: SPR
[1] = molecular target: XRCC1 cancer-associated variant P161L (human, UniProt P18887 1-633, P161L)
[2] = molecular target: XRCC1 cancer-associated variant Y576S (human, UniProt P18887 1-633, Y576S)
[3] = molecular target: XRCC1 cancer-associated variant R194W (human, UniProt P18887 1-633, R194W)
[4] = molecular target: XRCC1 cancer-associated variant R280H (human, UniProt P18887 1-633, R280H)
[5] = molecular target: XRCC1 cerebellar ataxia-related K431N mutant (human, UniProt P18887 1-633, K431N)

Kd [1] [nM] | Kd [2] [nM] | Kd [3] [nM] | Kd [4] [nM] | Binder | Kd [5] [nM]
320 | 422 | 686 | 569 | Aprataxin (APTX), human wild-type full-length (enzyme) not shown | 301
37.3 | 50.4 | 44.9 | 43.6 | DNA ligase IIIα, human wild-type full-length (1–922 aa) (enzyme) MAEQRFCVDYAKRGTAGCKKCKEKIVKGVCRIGKVVPNPFSESGGDMKEWYHIKCMFEKLERARATTKKIEDLTELEGWEELEDNEKEQITQHIADLSSKAAGTPKKKAVVQAKLTTTGQVTSPVKGASFVTSTNPRKFSGFSAKPNNSGEAPSSPTPKRSLSSSKCDPRHKDCLLREFRKLCAMVADNPSYNTKTQIIQDFLRKGSAGDGFHGDVYLTVKLLLPGVIKTVYNLNDKQIVKLFSRIFNCNPDDMARDLEQGDVSETIRVFFEQSKSFPPAAKSLLTIQEVDEFLLRLSKLTKEDEQQQALQDIASRCTANDLKCIIRLIKHDLKMNSGAKHVLDALDPNAYEAFKASRNLQDVVERVLHNAQEVEKEPGQRRALSVQASLMTPVQPMLAEACKSVEYAMKKCPNGMFSEIKYDGERVQVHKNGDHFSYFSRSLKPVLPHKVAHFKDYIPQAFPGGHSMILDSEVLLIDNKTGKPLPFGTLGVHKKAAFQDANVCLFVFDCIYFNDVSLMDRPLCERRKFLHDNMVEIPNRIMFSEMKRVTKALDLADMITRVIQEGLEGLVLKDVKGTYEPGKRHWLKVKKDYLNEGAMADTADLVVLGAFYGQGSKGGMMSIFLMGCYDPGSQKWCTVTKCAGGHDDATLARLQNELDMVKISKDPSKIPSWLKVNKIYYPDFIVPDPKKAAVWEITGAEFSKSEAHTADGISIRFPRCTRIRDDKDWKSATNLPQLKELYQLSKEKADFTVVAGDEGSSTTGGSSEENKGPSGSAVSRKAPSKPSASTKKAEGKLSNSNSKDGNMQTAKPSAMKVGEKLATKSSPVKVGEKRKAADETLCQTKVLLDIFTGVRLYLPPSTPDFSRLRRYFVAFDGDLVQEFDMTSATHVLGSRDKNPAAQQVSPEWIWACIRKRRLVAPC | –
